Data as given in PMC12167710 (2024).

Key:
[1] = target: recombinant mouse IgG1κ isotype control antibody (clone P3.6.2.8.1) (mouse, UniProt P01868 = IgG part); test: BLI
[2] = target: recombinant human IgG1λ isotype control antibody (clone AbD00264_hIgG1) (human, UniProt P01857 = IgG part); test: BLI

koff [1] | koff [2] | Binder
1.18e-05 s⁻¹ |  | anti-mouse κ VHH (TP1170) (VHH) VHH: QVQLVESGGGWVQPGGSLRLSCAASGFTFSDTAMMWVRQAPGKGREWVAAIDTGGGYTYYADSVKGRFTISRDNAKNTLYLQMNSLKPEDTARYYCAKTYSGNYYSNYTVANYGTTGRGTLVTVSS
 | 0.000246 s⁻¹ | anti-human λ VHH (HuFab lambda 1) (VHH) VHH: QVQLQDSGGGLVQPGGSLRLSCAASGFTLDYYAIGWFRQAPGKEREGVSCISSSDGSSDGYTYYADSVKGRFTISRDNAKNTVYLQMNNLKPEDTAVYYCAARLFGVATTDPSYFDSWGQGTQVTVSS
